Test results: patent publication US12397036B2, “Peptide exchange protein” (Cambridge Enterprise Limited, priority 2018, dated 2025)

Key:
HLA-A*02:01 = molecular target: T1, HLA-A*02:01 (Homo sapiens, UniProt P04439, D140Y/D185E/D98H/E176V/E277Q/G131W/G231S/I119V/I121R/I166T/I218V/L300P/L318F/N151K/N90K/P208A/P217A/Q86G/Q94H/R138H/R169H/T345S); format: cell-based; settings: ETV* (HLA-A*68:02) and SRY* (HLA-B*27) controls
T1 construct: expressed in transfected cells; host or cells: HeLaM-HLA-ABC-KO
Method: (g) Dose response curves of IFN-γ treated HeLaM and HeLaM-HLA-ABC^KO cells treated −/+100 nM TAPBPR with increasing concentrations of ETVSK*QSNV for 15 min at 37° C. Line graphs show MFI−/+s.e.m from three independent experiments. […] (h) Histograms of the typical fluorescent peptide binding observed using flow cytometry. (i) Bar graphs showing the MFI of fluorescent peptide binding to HeLaM HLA-ABC^KO+A2−/+s.e.m from two independent experiments with duplicates. ***P≤0.001, ****P≤0.0001, n/s not significant, using unpaired two-tailed t-test.
Target cell lines were seeded at 25,000-30,000 cells/well in 12-well plates and stimulated with IFN-γ. Following the stimulation period, the cells were washed 3 times with 1×PBS and incubated with 300 μL pre-warmed opti-MEM (Thermo Fisher Scientific, UK). In case the peptide binding was done in the presence of recombinant TAPBPR, the cells were then treated with or without recombinant TAPBPR (100 nM for HLA-A*68:02 or 1 μM for HLA-A*02:01). After 15 min, the desired TAMRA-labelled peptide was added to the cells and incubated at 37° C. (15 min for HLA-A*68:02 or 60 min for HLA-A*02:01). In case the peptide binding was facilitated by over-expressed TAPBPR, the labelled peptide was directly added to the cells, without using recombinant TAPBPR. […] The level of bound peptide/cell was determined by flow cytometry, using the YelFL1 channel (Cytek).

surface MHC I molecules = molecular target: T2, surface MHC I molecules (Homo sapiens, UniProt P04439, A269V/D140Y/D185E/E176V/E277Q/E87N/F33Y/G231S/I121R/I166T/I218V/L180W/L300P/L318F/N151K/P208A/P217A/Q86R/R138H/R169H/S129P/T345S/V36M); assay: TAPBPR remaining on cell surface after peptide binding (PeTe4 staining); format: cell-based; settings: 100 nM soluble TAPBPR^WT, then 10 nM peptide 15 min
T2 construct: HLA-A68 (MHC class I) expressed on HeLa; endogenous in cells; host or cells: HeLaM and derivatives (TAPBPR-KO with or without TAPBPR/tapasin constructs, +Her2, Her2-KO, +PDL1, pD-GFP); in some arms HeLaM-HLA-ABC-KO re-expressing HLA-A*68:02
Text: Subsequently, the amount of TAPBPR remaining on the cell surface was detected by staining with the TAPBPR specific mAb PeTe4.

[1] = molecular target: T3, HLA-A68 (MHC class I) expressed on HeLa (Homo sapiens, UniProt P04439, A269V/D140Y/D185E/E176V/E277Q/E87N/F33Y/G231S/I121R/I166T/I218V/L180W/L300P/L318F/N151K/P208A/P217A/Q86R/R138H/R169H/S129P/T345S/V36M); assay: ETV* peptide loading on HeLaM and HeLaM-pD-GFP cells; format: cell-based; settings: 1 nM recombinant protein
T3 construct: HLA-A68 (MHC class I) expressed on HeLa; endogenous in cells; host or cells: HeLaM and derivatives (TAPBPR-KO with or without TAPBPR/tapasin constructs, +Her2, Her2-KO, +PDL1, pD-GFP); in some arms HeLaM-HLA-ABC-KO re-expressing HLA-A*68:02

Her2 = molecular target: T4, Her2 (Homo sapiens, UniProt P04626); assay: Binding of recombinant TAPBPR proteins to HeLaM, HeLaM+Her2 and HeLaM^Her2KO cells; settings: 100 nM recombinant protein
T4 construct: HeLaM cells which naturally express Her2; endogenous in cells; host or cells: HeLaM, HeLaM+Her2 (over-expressing), HeLaM-Her2-KO (negative control)
Method: Histograms show the level of TAPBPR when the two cell lines were incubated with 100 nM protein while bar graphs summarise results using a range of concentrations of protein (0.001-100 nM). […] Each bar represents mean and standard deviation of three independent experiments.
Each bar represents mean and standard deviation of three independent experiments.

EL4 cells = assay: Binding of soluble human TAPBPR to EL4 cells (PeTe-4); parameters: species or system murine; settings: 1 μM, 15 min, 37° C.
H-2K^b expressed on EL4 = molecular target: T5, H-2K^b expressed on EL4 (Mus musculus, UniProt P01901); assay: […] loading on EL4 cells (SIINFEK*L and 25-D1.16 mAb); format: cell-based, murine; settings: 1 μM TAPBPR, 1 nM peptide 30 min
T5 construct: surface expressed H-2K^b are relatively more peptide receptive compared to human MHC I molecules; endogenous in cells; host or cells: EL4 (murine tumour cell line)
T5 sequence (P01901 22-369): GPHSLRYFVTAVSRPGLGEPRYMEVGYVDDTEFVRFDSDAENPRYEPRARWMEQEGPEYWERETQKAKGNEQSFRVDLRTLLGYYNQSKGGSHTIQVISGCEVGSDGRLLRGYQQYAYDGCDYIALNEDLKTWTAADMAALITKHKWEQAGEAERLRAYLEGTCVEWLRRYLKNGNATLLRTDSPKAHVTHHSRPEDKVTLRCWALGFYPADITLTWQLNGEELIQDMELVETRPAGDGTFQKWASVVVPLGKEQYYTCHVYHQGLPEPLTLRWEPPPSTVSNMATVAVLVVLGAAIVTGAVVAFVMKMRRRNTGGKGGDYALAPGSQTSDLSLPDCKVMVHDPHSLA
T5 sequence (P01887 21-119 partner): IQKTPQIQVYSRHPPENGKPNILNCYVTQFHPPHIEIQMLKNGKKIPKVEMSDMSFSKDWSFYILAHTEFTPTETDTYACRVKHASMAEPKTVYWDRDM
Method: (§1) Histograms are representative of three independent experiments. (19d) Bar graphs show the MFI of 25-D1.16−/+SD from three independent experiments. (19e) OT1 killing of EL4 cells treated −/+1 μM soluble TAPBPR^WT or TAPBPR^TN5, followed by incubation with 1 nM […] peptide. Error bars−/+s.e.m from triplicate wells. Data is representative of three independent experiments. Note: surface expressed H-2K^b are relatively more peptide receptive compared to human MHC I molecules. […] As OT1 T cells are highly efficient cytotoxic cells, killing 80-100% of targets after 1-4 hours, we decreased the concentration of […] used in these experiments to 1 nM in order to differentiate between TAPBPR-mediated and background peptide binding, otherwise we would not observe an additive effect of soluble TAPBPR on target cell killing.

EL4 tumour cells = assay: OT1 T cell killing of EL4 tumour cells; format: cell-based, murine; settings: 1 μM TAPBPR, 1 nM SIINFEKL
Method: as §1
Although the results above provide indication that soluble TAPBPR could be utilised to decorate target cells with immunogenic peptides and enhance T cell responses against tumours, we next determined whether this could result in enhanced killing of tumour cells. We assessed killing of murine EL4 tumour cells by OT1 T cells in the presence of human TAPBPR and very low concentrations of […] peptide.

B1: soluble TAPBPR^WT: secreted His-tagged luminal domain of human TAPBPR, lacking transmembrane domain and cytoplasmic tail; SEQ ID NO: 2 (protein)
chain: KPHPAEGQWRAVDVVLDCFLVKDGAHRGALASSEDRARASLVLKQVPVLDDGSLEDFTDFQGGTLAQDDPPIIFEASVDLVQIPQAEALLHADCSGKEVTCEISRYFLQMTETTVKTAAWFMANVQVSGGGPSISLVMKTPRVAKNEVLWHPTLNLPLSPQGTVRTAVEFQVMTQTQSLSFLLGSSASLDCGFSMAPGLDLISVEWRLQHKGRGQLVYSWTAGQGQAVRKGATLEPAQLGMARDASLTLPGLTIQDEGTYICQITTSLYRAQQIIQLNIQASPKVRLSLANEALLPTLICDIAGYYPLDVVVTWTREELGGSPAQVSGASFSSLRQSVAGTYSISSSLTAEPGSAGATYTCQVTHISLEEPLGASTQVVPPERR
modifications: His tag; TAPBPR luminal domain (mature sequence without 21 aa leader sequence)
binding of peptides specific for other MHC class I molecules onto HLA-A2 (HLA-A*02:01): did not promote the binding
dissociation of TAPBPR from cells after peptide binding (surface MHC I molecules): dissociate from cells upon high affinity peptide binding
exogenous peptide loading onto antibody-target expressing cells at 1 nM protein [1]: no peptide loading
binding to Her2-deficient HeLaM cells (Her2): still capable of binding
binding to EL4 cells (EL4 cells): bound to EL4 cells
loading of SIINFEKL onto H-2K^b (H-2K^b expressed on EL4): significantly enhanced the loading of SIINFEKL
OT1 cytotoxic T cell killing of peptide-pulsed EL4 target cells (EL4 tumour cells): significant enhancement in killing
